Assay: soluble on expression in E. coli; label from the status in PepcDB or PDB records

Sequence | soluble on expression in E. coli
MGSDKIHHHHHHMYLITSAAMVASELQSEFGPLPPCFLPVGNKRLFHHQLALIPAGERTIITLPEGFTPGPYDSQSLKDYGVELLYLPPTLSLGESIVYALIQLEFADDEPLYILHGDTLFDSLPRQTDCLGLSQVEDNYNWAEFDAQSGTLRPYHAELRPSSELISNGFFSFSAPRTLIRYITQAKGDFIAGLNGYIDDKGLTPITLPHWYDFGHSHTYYQSKSRMTTQRAFNGMAIQGQVVKKFSRNKHKLAAEANWYQSLPGPMRGYIPQLLGCDESPELFGYSIEYLHLTALNELYVFSQLPAFAWRKVLKACCQFLKDASSYSVADAQTLSGLFMDKTLSRLEDFASQSGISVAQENRINGALRPSLLELARISREYLPKDNGRQHLLHGDFCFSNILYDFRTCNIKVIDPRGLDGNDKQTIHGNGLYDIAKLAHSVLGLYDAIIAGYFKAERLGQNLDFSIAITPRREQIMADFVRLMASEFAVSEAELYAMQIQLFLSMLPLHSDRPDRQLGFIGNAYRLYDRLLACTGNPS | not soluble
MSERAPLVIIGTGLAGYNLAREWRKLDGETPLLMITADDGRSYSKPMLSTGFSKNKDADGLAMAEPGAMAEQLNARILTHTRVTGIDPGHQRIWIGEEEVRYRDLVLAWGAEPIRVPVEGDAQDALYPINDLEDYARFRQAAAGKRRVLLLGAGLIGCEFANDLSSGGYQLDVVAPCEQVMPGLLHPAAAKAVQAGLEGLGVRFHLGPVLASLKKAGEGLEAHLSDGEVIPCDLVVSAVGLRPRTELAFAAGLAVNRGIVVDRSLRTSHANIYALGDCAEVDGLNLLYVMPLMACARALAQTLAGNPSQVAYGPMPVTVKTPACPLVVSPPPRGMDGQWLVEGSGTDLKVLCRDTAGRVIGYALTGAAVNEKLALNKELPGLMA | soluble
MGSDKIHHHHHHMNQKNILTWGDVAYASRIATGGSKQEWEALELIWQAWEIIIYTGLATYSNKRELLLVVIRFFAIVSFYLEFFNDYYWEYYINNYSREWLKGIHIIPDYNEYIIDCVNGLCCPILPKSEPNNLLLYFVENALQQVMQVPMDSLNSDSMIFKSVWEISHQQFQLDGDIYELQRREAELISESIFLDKIINLAEIHENYNQNNEFIRDEAAIIEIFFDEDNTDLEWMKCTNHIDFQKSQEVIDATNKFIAFFSCYQIKPNFSLKHCSEIIGFNETDLKRWIRTINRKKQIILSGSPGTGKTFIAKHLAEHLIGGSDGFSELLQFHPTYSYEDFIQGIRPQSQDGQLTYPLVPGRFLKFCKEAEYHQGTCVLIIDEINRANLAQVFGELMYLLEYRNREIPLAGGNTFRIPENVRIIGTMNTADRSIANIDHALRRRFAFIELRPNYDVLRRYHQKRGFAVEGLINILQQLNQAIADKNYEIGISFFLTDNLREDMDDIWPMEIEPYLEEYFFNQLAKVDEFRWDKIKDKLWI | not soluble
MPAIEVGRICVKVKGREAGSKCVIVDIIDDNFVLVTGPKDITGVKRRRVNILHLEPTDKKIDIQKGASDEEVKKKLEESNLTEYMKEKIKIRMPTL | soluble
MGKTYNVTRIIKLEVRDRIIPPTMKLPEGVVTSIGSNLTITCRVSLRLPTTDADVFWISNGMYYEEEDEDGDGRISVANKIYMTDKRRVITSWLNINPVKEEDATTFTCMAFTIPSISKTVTVSIT | not soluble
MGSDKIHHHHHHMIINNNIKELSIAHLQLIVCLIKHGNSCVVSDELGISQSSISYHLRRLRVIFADEMFIRTGKGLKPTERCIQIGHFAQDLINRVEEELIHANDFVPKQMKRELTLIAADTACGWFSTLFSDMQKTLPRVTLCARPWNLKSMEDLDSGAVDFGIHIIENSKKGIYDMDIAPCYRLCVVRDGHPLISKGEVTLKDLEQYPVLINDLGGWNNDGNSLMQRVLEKHGLKLNIAGRLGYINSIFTALHTSNAITYTSAASIPQSIPGLTLLRGPKEVNEVDCFYRLYISRMRYGSQETNYLIDFIYDSFKHFLTQQYNRIDIAAVINK | not soluble
MTKKKVYNKRKRKEASIRVLEAIREKRKQQLAENARLEAEQAEQDVAPEPIDVQDPVINAGNIVEDAEPLNVNPSPPQPRKFNFRVANLEIARQAKISQNLMKTSETASTSSPVRQQVKTEIVPRVSQRTIVKTQALPRVNAPVLSSVPAKNPLPPKFVYINTAGLKRKRDDDKNTPSTSNSITLNPSSRGDQTQFIVHLQRTIERLEKEKAALTEKLTMREDEIKVFSVEFVNIQKENVKLMKENKAKESQISNQSIQVRNSWKFADLFKKELQKSRKDVSEVKWKIDKIEKKVGIKKPTPRKKPDVKLINPEDISLMSDRTQDGEDSSDFGSPLAKYLKPDQPSTSSACYGKPFYFESTSSSSRKPITASPGPPGRTQISDQLNTGEVRYVVNSGKPFNFSSESNSRNLKLIPGYIKRPEFRYIKPEGFTSASYKAQSEGMSSFLKTGSSATPENSKKSAHFDMPDISSTPYKSHVVVESDEMNSSSSTIGGFESEKKDNGALGSQKSPMPDIATALHNIFDSKEVQSSSSTTGSSAPPENSKKSDHFDMPDISSTLYRSRVEPISSSSSGSTSTSAPRYVPKPIAQPARYAIPSPGALNALRRPPEWKGQRRHAPSYVKSRESVTFRGCSRFPVTSPHFAKAHLEPVTDGKDDSKIVKYRFVPKRPDFDGEREHKK | not soluble
MGSDKIHHHHHHMYIESFKQHFSAIDDHRQSAKVTYPLFDVLFGSLCAVIASSNGWFEIREYILGHHSWFKKQKMFIDGIPADDTIARIVSMIEPDSFNACFLAWMKSVHQLTNGEVIAIDGKTLRGSYNRDDRSSTIHMISAYASANKLVLGQLKAEQKSNEITAIPTLLKMLDLRGALVTIDAMGCQTAIATTIIDKGGDYLLAVKNNQGNLAKAINKAFSSHRSAGLSDDHVNIEKSHGRIENRACFVLSSAELDGDFTHWEALKSIVMVESFRAVKGKTASLEYRYYISSKVLSAEQALSATREHWGIESMHWVLDVSMNEDECQIYKNNGAENLAYLRHMSLNMLQKEPTKLSIVGKRKRCLMNPAFLEKVLIAGLCAPTK | not soluble
MAHHHHHHMDDFPLSLCSSNIRETMFKVTAPLFLALTTSNAIALSRGTSVSVSSEGGKCNEIWYSNGKEMCGSPLAPQSSTVQRALPPAPAPAKKPESSLRSGDEVATQHEERGGLDLRSIASRQPSFDALSATINGERQVGRASGTAIRGGNEGSAEPSSDEGQQRTTELWSGQAEGQVKQMAEGEQRNPGSGDEGQNQGGDVAPLQVAKEGESNMKWPPAQRVILGTVKENAQKETRKDLDDLEQEANSTQVGRTTAHKRHVMLITATLSFICVQRLLV | soluble
MNNRSAVRILRLPAVIQKTGMARATIYDWLNPKSPRYDATFPKKRMLGVKSVGWIEAEIDEWLSQRCKLILEHHHHHH | not soluble
MELEFKCSDVGVWKEALSSYDSRIESLNKPELVSLDQFYRIKLPCLLHDRDPNPYLTTSELSQLMKWKLSRGKWRPRLLDFVSSLDDSVVKSASEKAFKSLPDISKAVKELTVLKGVGAATASAVLAAYAPDIAPFMSDEAMEVALGNSKDYSLKQYLLFATKLQDKAKELKLKGEWDGPSDIERALWSCTVRAKSQPEKSSSGKKRKR | not soluble
SKLNERSVAHYALSDSPADHMGFLRTWGGPGTPPTPSGTGRRCWFVLKGNLLFSFESREGRAPLSLVVLEGCTVELAEAPVPEEFAFAICFDAPGVRPHLLAAEGPAAQEAWVKVLSRASFGYMRLVVRELESQLQDARQSLALQRRSSWKSVASRCKPQAPNHRAAGLENGHCLSKDSSPVGLVEEAGSRSAGWGLAEWELQGPASLLLGKGQSPVSPETSCFSTLHDWYGQEIVELRQCWQKRAQGSHSKCEEQDRP | soluble
MVKKSYVINWARDLANRGVGVNYDGAFGSQCVDLPFWILGKFFGRPISGNAIDLLNSAKAAGYQVIYDAPGVNPRVGDIFVMHSIAYDGKDYGHTGLVIEDSDGHSIKTIEQNVDGNADNLYVGGPARYRTRSFNGIIGWIRPPYENEILENKREETDMRDFFVITNSEYTFAGVHYAKGAVLHVSPTQKRAFWVIADQENFIKQVNKNIEYVEKNASPAFLQRIVEIYQVKFEGKNVH | soluble
MDEDLTPIPSLTPDIQKFRIYGRVTYFQENKNGNGIHFLLTDSLGCSIKCIVTVEAVVKHCKDQLKLGQPCYVRGGRVDYHDKRYPNRTGHDCVIFNNNIAEIQITTVATNFVTPIATLNAPKIIYKVHGMITQRGKYSKKEVFCFVITDDKGDSVNVAAFCEFADWLYENLKEKQWYYLYCGLIEKVCKPDDQKEPNNVIILHNKCQIETPSDPSVADPFAELDDLNCTINKMKL | not soluble
MNTFVFLPLAFFVLLESFEAQEPPGPTARLNMLDNYMKRLNLTDIHFSDPGGIVKVDTVVNKYQPLTEEEIIRKMKKTVNDTAYDIANGKDPDLIEKLDKKTVQLPKPIRSRPQF | not soluble
